Experiments:
human RAD51 = biological target: T1, human RAD51 (Homo sapiens, UniProt Q06609, V273P/D274G); experiment: cryo-EM structure of filament; details: 2 mM AMP-PNP, 5 mM CaCl2, pH 7.5, 37 °C; homologous dsDNA filament; ATP-binding site
T1 construct: untagged as described, human cDNA in pET11, E. coli BLR pRARE host; helical filament on dsDNA
T1 sequence (Q06609 2-339 V273P/D274G): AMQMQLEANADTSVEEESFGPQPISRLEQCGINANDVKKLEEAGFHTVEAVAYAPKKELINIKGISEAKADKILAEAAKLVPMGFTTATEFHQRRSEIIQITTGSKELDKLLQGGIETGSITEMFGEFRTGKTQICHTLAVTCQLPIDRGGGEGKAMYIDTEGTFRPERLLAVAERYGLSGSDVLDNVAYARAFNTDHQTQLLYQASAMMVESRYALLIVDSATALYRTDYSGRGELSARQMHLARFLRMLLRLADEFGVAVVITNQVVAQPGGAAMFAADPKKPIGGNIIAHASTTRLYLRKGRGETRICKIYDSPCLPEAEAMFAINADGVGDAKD

DMC1 WT [1] = biological target: T2, DMC1 WT (Homo sapiens, UniProt Q14565 1-340); experiment: cryo-EM structure; EMSA: 35 mM Tris-HCl pH 7.5, 1 mM DTT, 10 mM MgCl2, 100 ng/ul BSA, 50 mM KCl, 2 mM ATP, 37 °C 10 min; DNA 3 uM nucleotides or base pairs; details: protein: recombinant, tags: His6, blunt
T2 sequence: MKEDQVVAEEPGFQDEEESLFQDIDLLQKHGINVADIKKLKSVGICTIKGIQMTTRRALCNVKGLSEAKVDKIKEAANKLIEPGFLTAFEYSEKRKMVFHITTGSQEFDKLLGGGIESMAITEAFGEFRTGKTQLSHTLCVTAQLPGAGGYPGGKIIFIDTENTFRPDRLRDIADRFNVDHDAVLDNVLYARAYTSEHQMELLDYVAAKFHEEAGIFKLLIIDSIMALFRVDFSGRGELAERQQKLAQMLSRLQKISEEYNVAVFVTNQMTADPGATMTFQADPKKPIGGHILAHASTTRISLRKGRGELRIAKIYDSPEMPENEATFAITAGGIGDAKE

DMC1-Q244M (Qm) = biological target: T3, DMC1-Q244M (Qm) (Homo sapiens, UniProt Q14565 1-340, Q244M); experiment: cryo-EM structure; DNA too flexible to be observed; EMSA: 35 mM Tris-HCl pH 7.5, 1 mM DTT, 10 mM MgCl2, 100 ng/ul BSA, 50 mM KCl, 2 mM ATP, 37 °C 10 min; DNA 3 uM nucleotides or base pairs; details: protein: recombinant; tags: His6; blunt
T3 sequence: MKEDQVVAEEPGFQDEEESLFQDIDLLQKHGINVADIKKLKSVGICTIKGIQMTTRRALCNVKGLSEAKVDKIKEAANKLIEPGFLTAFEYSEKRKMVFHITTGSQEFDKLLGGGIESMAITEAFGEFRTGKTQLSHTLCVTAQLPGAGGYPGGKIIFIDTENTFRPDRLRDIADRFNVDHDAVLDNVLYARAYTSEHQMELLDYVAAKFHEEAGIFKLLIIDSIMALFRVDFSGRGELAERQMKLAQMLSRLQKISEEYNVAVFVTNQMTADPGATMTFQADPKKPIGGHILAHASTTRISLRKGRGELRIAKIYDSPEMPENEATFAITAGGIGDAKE

DMC1-PvGd = biological target: T4, DMC1-PvGd (Homo sapiens, UniProt Q14565 1-340, P274V;G275D); experiment: EMSA; 2 mM ATP, 10 mM Mg2+; EMSA: 35 mM Tris-HCl pH 7.5, 1 mM DTT, 10 mM MgCl2, 100 ng/ul BSA, 50 mM KCl, 2 mM ATP, 37 °C 10 min; DNA 3 uM nucleotides or base pairs; details: protein: recombinant, tags: His6
T4 sequence: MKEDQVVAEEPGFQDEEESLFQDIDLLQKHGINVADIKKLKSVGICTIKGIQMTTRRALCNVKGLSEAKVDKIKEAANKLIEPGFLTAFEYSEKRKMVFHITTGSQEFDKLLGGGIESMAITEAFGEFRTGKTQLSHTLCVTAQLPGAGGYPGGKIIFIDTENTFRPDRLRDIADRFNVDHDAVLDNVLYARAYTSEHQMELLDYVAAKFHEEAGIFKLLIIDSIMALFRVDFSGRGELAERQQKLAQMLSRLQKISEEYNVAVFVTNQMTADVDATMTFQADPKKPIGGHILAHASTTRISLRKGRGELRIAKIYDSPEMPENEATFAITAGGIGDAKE

DMC1-QmPvGd = biological target: T5, DMC1-QmPvGd (Homo sapiens, UniProt Q14565 1-340, Q244M;P274V;G275D); experiment: as above; details: protein: recombinant, tags: His6
T5 sequence: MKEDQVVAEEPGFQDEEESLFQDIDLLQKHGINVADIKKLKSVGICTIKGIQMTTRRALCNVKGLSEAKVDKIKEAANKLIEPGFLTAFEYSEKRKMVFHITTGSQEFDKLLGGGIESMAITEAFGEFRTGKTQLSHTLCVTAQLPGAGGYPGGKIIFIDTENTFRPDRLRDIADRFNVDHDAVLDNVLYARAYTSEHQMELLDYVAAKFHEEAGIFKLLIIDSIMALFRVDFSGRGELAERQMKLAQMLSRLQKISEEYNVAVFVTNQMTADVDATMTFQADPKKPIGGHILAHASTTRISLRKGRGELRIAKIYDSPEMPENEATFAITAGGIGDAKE

DMC1 WT [2] = biological target: T2, DMC1 WT; experiment: cryo-EM structure; AMP-PNP; EMSA: 35 mM Tris-HCl pH 7.5, 1 mM DTT, 10 mM MgCl2, 100 ng/ul BSA, 50 mM KCl, 2 mM ATP, 37 °C 10 min; DNA 3 uM nucleotides or base pairs; details: protein: recombinant; tags: His6; single strand
[3] = biological target: the molecule itself; experiment: cryo-EM structure; helical filaments: 4 uM DMC1 (or RAD51) protein with 24 uM nucleotides of ssDNA (presynaptic) or dsDNA (postsynaptic) in 35 mM Tris-HCl pH 7.5, 108 mM KCl, 1 mM DTT, 2 mM AMP-PNP, 5 mM CaCl2, 37 °C, 30 min; helical reconstruction; protomer to protomer within a nucleoprotein filament
[4] = label: 5'-32P (EMSA), single strand
[5] = label: 5'-32P on Oligo 1, blunt

Q: How did the “cryo-EM structure of filament” value (human RAD51) turn out when Nc1ncnc2c1ncn2[C@@H]1O[C@H](COP(=O)(O)OP(=O)(O)NP(=O)(O)O)[C@@H](O)[C@H]1O [AMP-PNP] was run?
A: solved the structure of the dsDNA filaments of the double mutant RAD51-VpDg

B1: Oligo 3/Oligo 4 15 bp homologous dsDNA (dsDNA)
DNA 1: ACGGGCAACAGCTGA
DNA 2: TCAGCTGTTGCCCGT
Q: Does B1 bind (DMC1 WT [1])?
A: binds

Q: Does B1 bind (DMC1-Q244M (Qm))?
A: binds

B2: Oligo 3/Oligo 5 15 bp mismatched dsDNA (dsDNA)
DNA 1: ACGGGCAACAGCTGA
DNA 2: TCAGCTGTCGCCCGT
Q: Does B2 bind (DMC1 WT [1]; one A-C mismatch)?
A: binds

B3: Oligo 1 80-mer ssDNA (ssDNA)
DNA: TTATGTTCATTTTTTATATCCTTTACTTTATTTTCTCTGTTTATTCATTTACTTATTTTGTATTATCCTTATCTTATTTA
Q: Which binding signal (DMC1-PvGd; [4]) does the source give for B3 here?
A: ~60 % of WT binding (approx. 40% lost)

Q: And the binding signal (DMC1-QmPvGd; [4])?
A: ~40 % of WT binding (approx. 60% lost)

B4: Oligo 1/Oligo 2 80 bp dsDNA (dsDNA)
DNA 1: TTATGTTCATTTTTTATATCCTTTACTTTATTTTCTCTGTTTATTCATTTACTTATTTTGTATTATCCTTATCTTATTTA
DNA 2: TAAATAAGATAAGGATAATACAAAATAAGTAAATGAATAAACAGAGAAAATAAAGTAAAGGATATAAAAAATGAACATAA
Q: B4 was tested. Which binding signal (DMC1-PvGd; [5]) did it give?
A: ~60 % of WT binding (approx. 40% lost)

Q: What about the binding signal (DMC1-QmPvGd; [5]) of the same molecule?
A: ~40 % of WT binding (approx. 60% lost)

B5: Oligo 1 80-mer ssDNA, unlabeled (ssDNA)
DNA: TTATGTTCATTTTTTATATCCTTTACTTTATTTTCTCTGTTTATTCATTTACTTATTTTGTATTATCCTTATCTTATTTA
Q: Does B5 bind (DMC1 WT [2])?
A: binds

B6: human DMC1 (wild type) (natural protein)
chain: MKEDQVVAEEPGFQDEEESLFQDIDLLQKHGINVADIKKLKSVGICTIKGIQMTTRRALCNVKGLSEAKVDKIKEAANKLIEPGFLTAFEYSEKRKMVFHITTGSQEFDKLLGGGIESMAITEAFGEFRTGKTQLSHTLCVTAQLPGAGGYPGGKIIFIDTENTFRPDRLRDIADRFNVDHDAVLDNVLYARAYTSEHQMELLDYVAAKFHEEAGIFKLLIIDSIMALFRVDFSGRGELAERQQKLAQMLSRLQKISEEYNVAVFVTNQMTADPGATMTFQADPKKPIGGHILAHASTTRISLRKGRGELRIAKIYDSPEMPENEATFAITAGGIGDAKE
notes: DMC1, human; cDNA in vector pRSFDuet; Protomer of a helical filament assembled on ssDNA or dsDNA with AMP-PNP and Ca2+; also called DMC1-WT; WT DMC1; source: E. coli RecA-deficient BLR strain with pRARE, purified (TALON, Source Q, macrohydroxyapatite, Mono Q)
Q: Does B6 bind [3]?
A: binds

B7: human DMC1-Q244M (natural protein)
chain: MKEDQVVAEEPGFQDEEESLFQDIDLLQKHGINVADIKKLKSVGICTIKGIQMTTRRALCNVKGLSEAKVDKIKEAANKLIEPGFLTAFEYSEKRKMVFHITTGSQEFDKLLGGGIESMAITEAFGEFRTGKTQLSHTLCVTAQLPGAGGYPGGKIIFIDTENTFRPDRLRDIADRFNVDHDAVLDNVLYARAYTSEHQMELLDYVAAKFHEEAGIFKLLIIDSIMALFRVDFSGRGELAERQMKLAQMLSRLQKISEEYNVAVFVTNQMTADPGATMTFQADPKKPIGGHILAHASTTRISLRKGRGELRIAKIYDSPEMPENEATFAITAGGIGDAKE
notes: DMC1, human; site-directed mutant of the DMC1 cDNA in pRSFDuet; Protomer of a helical filament assembled with homologous dsDNA, AMP-PNP and Ca2+; the DNA density was not observable in the map; also called DMC1-Qm; source: E. coli BLR pRARE, purified as described for the WT protein
Q: Does B7 bind [3]?
A: binds

B8: human RAD51-V273P/D274G (natural protein)
chain: MAMQMQLEANADTSVEEESFGPQPISRLEQCGINANDVKKLEEAGFHTVEAVAYAPKKELINIKGISEAKADKILAEAAKLVPMGFTTATEFHQRRSEIIQITTGSKELDKLLQGGIETGSITEMFGEFRTGKTQICHTLAVTCQLPIDRGGGEGKAMYIDTEGTFRPERLLAVAERYGLSGSDVLDNVAYARAFNTDHQTQLLYQASAMMVESRYALLIVDSATALYRTDYSGRGELSARQMHLARFLRMLLRLADEFGVAVVITNQVVAQPGGAAMFAADPKKPIGGNIIAHASTTRLYLRKGRGETRICKIYDSPCLPEAEAMFAINADGVGDAKD
notes: RAD51, human; site-directed mutant of the RAD51 cDNA in vector pET11; Protomer of a helical filament assembled on dsDNA with AMP-PNP and Ca2+; also called RAD51-VpDg; RAD51-V273P, D274G mutant
Q: Does B8 bind [3]?
A: binds
